One protein from publication PMC2893186 (BMC Structural Biology, 2010) can be followed below.

The data set deals with the molecule itself. The data set can be described thus: crystal structure; crystals grown from purified His-tagged ZHX2 HD2-3 (OPPF_2273), 20% PEG6000, 0.2 M LiCl, HEPES pH7; protein cleaved in the droplet, two molecules of HD2 in the asymmetric unit; 2.70 Å, data at 100 K.

The stoichiometry N is the number of molecules, sites or subunits per partner or assembly.

B1: ZHX2 HD2 (homeodomain 2 of human zinc-fingers and homeoboxes 2), proteolytic fragment derived from OPPF_2273 (ZHX2 HD2-3) (domain or fragment)
chain: RKKTKEQIAHLKASFLQSQFPDDAEVYRLIEVTGLARSEIKKWFSDHRYRCQRGIVHI
notes: ZHX2 (zinc-fingers and homeoboxes 2), human; homeodomain 2; Expressed as construct OPPF_2273 (HD2-3, aa 444-582); HD2-HD3 was cleaved by proteolysis after purification and only HD2 crystallized; Cys494 lies in the fragment; Homodimer in the crystal, with helix I domain-swapped and a disulfide bridge between the Cys494 of the two subunits; the deposited entry would show the ordered residues; also …
Take B1: the “stoichiometry N” value came out at 2.
